Here are results for three molecules from patent publication US5158935A, “Human epidermal growth factor having substitution at position 11” (Chiron Corporation, priority 1989, dated 1992).

The conditions of data set [1]: forms isolated from recombinant yeast culture; cited from earlier work.
The conditions of data set [2]: stored as a lyophilized powder; cited from earlier work.
For data set [3] the following is noted: citrate buffer, pH 3, 45° C. On the procedure: Solutions of rhEGF and rhEGF-Glu11 were prepared in citrate buffer, pH 3, and were maintained at 45° C. Aliquots were drawn on days 0, 1, 7, and 15, and were analyzed by RP-HPLC (as described in Example 2).

Take “EGF-B: EGF-D wherein the C-terminal arg-leu has been removed (NSDSECPLSHDGYCLHDGVCMYIEALDKYACNCVVGYIGERCQYRDLKWWE; not fully specified; Epidermal growth factor; UniProt P01133 971-1021, looked up, fragment)”: the EGF activity result in data set [1] is given as “full EGF activity”. With “EGF-D: 52-amino acid sequence obtained by removing the C-terminal arg of EGF (NSDSECPLSHDGYCLHDGVCMYIEALDKYACNCVVGYIGERCQYRDLKWWEL; not fully specified; Epidermal growth factor; UniProt P01133 971-1022, looked up, fragment)”, the EGF activity entry in data set [1] is reported as “full EGF activity”. Moreover, the stability on storage result in data set [2] is “stable”.

For the molecule `CC[C@H](C)[C@@H]1NC(=O)[C@H](Cc2ccc(O)cc2)NC(=O)CNC(=O)[C@H](C(C)C)NC(=O)[C@H](C(C)C)NC(=O)[C@@H](NC(=O)[C@H](CC(N)=O)NC(=O)[C@@H]2CSSC[C@@H]3NC(=O)[C@H](Cc4ccc(O)cc4)NC(=O)CNC(=O)[C@H](CC(=O)O)NC(=O)[C@H](Cc4c[nH]cn4)NC(=O)[C@H](CO)NC(=O)[C@H](CC(C)C)NC(=O)[C@@H]4CCCN4C(=O)[C@@H](NC(=O)[C@H](CCC(=O)O)NC(=O)[C@H](CO)NC(=O)[C@H](CC(=O)O)NC(=O)[C@H](CO)NC(=O)[C@@H](N)CC(N)=O)CSSC[C@H](NC(=O)[C@H](C(C)C)NC(=O)CNC(=O)[C@H](CC(=O)O)NC(=O)[C@H](Cc4c[nH]cn4)NC(=O)[C@H](CC(C)C)NC3=O)C(=O)N[C@@H](CCSC)C(=O)N[C@@H](Cc3ccc(O)cc3)C(=O)N[C@@H]([C@@H](C)CC)C(=O)N[C@@H](CCC(=O)O)C(=O)N[C@@H](C)C(=O)N[C@@H](CC(C)C)C(=O)N[C@@H](CC(=O)O)C(=O)N[C@@H](CCCCN)C(=O)N[C@@H](Cc3ccc(O)cc3)C(=O)N[C@@H](C)C(=O)N2)CSSC[C@@H](C(=O)N[C@@H](CCC(N)=O)C(=O)N[C@@H](Cc2ccc(O)cc2)C(=O)N[C@@H](CCCNC(=N)N)C(=O)N[C@@H](CC(=O)O)C(=O)N[C@@H](CC(C)C)C(=O)N[C@@H](CCCCN)C(=O)N[C@@H](Cc2c[nH]c3ccccc23)C(=O)N[C@@H](Cc2c[nH]c3ccccc23)C(=O)N[C@@H](CCC(=O)O)C(=O)N[C@@H](CC(C)C)C(=O)N[C@@H](CCCNC(=N)N)C(=O)O)NC(=O)[C@H](CCCNC(=N)N)NC(=O)[C@H](CCC(=O)O)NC(=O)CNC1=O` [EGF-Asp11], the “degradation products versus original protein by RP-HPLC” value in data set [3] (by day 15) was “the degradation products outweighed the original rhEGF”. For the same molecule, the “degradation seen in RP-HPLC chromatograms” value in data set [3] (days 0, 1, 7 and 15) is “rapidly degraded to rhEGF-isoaspartyl11”.
